Results as given in the supplement of paper PMC11865577.

Key:
Test in all cases: pull-down binding Z-score (relative to library population); higher = stronger binding
TO-N3 (biotin conjugate) = conditions: RNA library: Library-2
Summary of the method: (§1)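 An RNA library (1 μg) carrying a Cy5 or Cy3 end label was heat-folded in phosphate/NaCl/KCl buffer, then incubated for 60 min at 25 °C with streptavidin beads loaded with 100 pmol of biotin-conjugated small molecule. The beads were washed three times, and bound RNA was released in hot SDS and hybridised to a DNA barcode microarray for 20 h at 55.5 °C. Each binding score was derived by subtracting the signal from beads without compound, averaging the barcoded replicate probes after removing the highest and lowest, and expressing the result as a Z-score relative to the library mean and standard deviation.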

[1] = system: TO-3-N3-2 (biotin conjugate); conditions: RNA library: Library-2
Summary of the method: as §1

[2] = system: G-clamp-N3 (biotin conjugate); conditions: RNA library: Library-1 (pre-miRNA loops + repeats)
Summary of the method: as §1

[3] = system: TO-3-N3 (biotin conjugate); conditions: RNA library: Library-2
Summary of the method: as §1

[4] = system: TO-N3-2 (biotin conjugate); conditions: RNA library: Library-2
Summary of the method: as §1

Sequence | pull-down binding Z-score (TO-N3 (biotin conjugate)) | pull-down binding Z-score [1] | pull-down binding Z-score [2] | pull-down binding Z-score [3] | pull-down binding Z-score [4]
GUGUUUGUGACAUAAUUUGU [hsa-mir-325] | 0.0205 | 0.252 | -1.02 | 0.174 | -0.231
UUUGUUGAAAGAAUAAAUAAACCAACAAG [hsa-mir-1264] | -0.367 | 0.0773 | -0.724 | -0.424 | -0.365
AUGAUUUUUGGGGUCA [hsa-mir-4678] | -0.0941 | -0.1 | 1.23 | -0.0616 | -0.328
AUUUGCCAUCACCUUUACCUUUAAUGGCAAAA [hsa-mir-548av] | -0.188 | -0.205 | -0.985 | 0.0312 | -0.906
UUUUAGAA [hsa-mir-4443] | -0.913 | -0.535 | -1.3 | -0.568 | -1.35
UUUGCCUAUAAAAGUAAUGGCAAA [hsa-mir-548an] | -0.512 | -0.19 | 0.207 | -0.247 | -0.888
GUGUCUGGCCCCAGCAGCCCAGACU [hsa-mir-6751] | 0.766 | -0.171 | -0.568 | 0.258 | 1.39
CGCUGCCUGGAAUUAACCCCGCUGUG [hsa-mir-636] | 0.517 | -0.249 | -1.15 | 0.493 | 0.891
UGAGCAGGCCCAGAACCCAGCUCGUGCUCA [hsa-mir-6794] | 0.56 | -0.114 | 0.169 | 0.387 | 0.805
UCUCAAAAUAAUUCUGCAGUGAGA [hsa-mir-4524b] | -1.13 | 0.0866 | 2.26 | -0.872 | -0.868
UGGUCAGGCGGCU [hsa-mir-3917] | 0.0412 | -0.061 | 0.0721 | -0.142 | 0.442
GAGACAACUUCCCAGUCUC [hsa-mir-6717] | -1.17 | -0.519 | -0.0467 | -0.96 | -0.848
GGUGGUUGUGGGAGUCACU [hsa-mir-4418] | 2.18 | 1.89 | -0.575 | 1.58 | 1.93
GUUUUUUAAGAGGAAGGGAGACCUAAGCUAGCA [hsa-mir-4481] | 0.507 | 0.475 | 0.269 | 0.205 | 0.747
ACAGGUAGUGGCCACAGUGAGAAAGCUGGCCUGUCCUUCUGC [hsa-mir-4314] | 0.245 | 0.0324 | -0.00957 | -0.00864 | 0.681
GUGGAGCCAAAAUUAGAAGGGCCAAAAUUCUACCUGGCCCACUACCACAG [hsa-mir-3978] | -0.00817 | 0.318 | -0.932 | -0.3 | 0.705
AUAUGAGCUUCAUUUAUACAUUUCAUAU [hsa-mir-556] | -0.335 | -0.0541 | -0.528 | -0.0401 | -1.01
GACGGUGGGGGCCACGCUGACAGCCGC [hsa-mir-6804] | 2.24 | 0.752 | 1.9 | 2.01 | 1.89
AGCAUCUGAAUGGGUACAGUUGUUGU [hsa-mir-6818] | 0.0834 | -0.0469 | -0.405 | 0.0263 | -0.225

Sequence | pull-down binding Z-score (TO-N3 (biotin conjugate)) | pull-down binding Z-score [1] | pull-down binding Z-score [2] | pull-down binding Z-score [3] | pull-down binding Z-score [4]
CUUCACUGGUGCAGUAAGAAG [hsa-mir-7853] | -0.253 | -0.195 | -0.0639 | -0.0978 | -0.23
GGAGCUCUGUCCUGUCUCACUCAUUGCUCC [hsa-mir-6749] | -0.473 | -0.272 | -0.199 | -0.331 | 0.177
GAGCUGGGUGGGGUGCCAAGCCU [hsa-mir-6819] | 2.43 | 1.71 | 1.38 | 2.3 | 2.06
UGUGUGUCGCUCCGGGUCCACG [hsa-mir-574] | 0.516 | -0.0762 | 0.438 | 0.0307 | 1.25
AGGUAGUGAUAUGUGCAUCUACU [hsa-mir-17] | 0.31 | 0.142 | -0.805 | 0.0812 | 0.759
UGUUCAUUCACAUGAUCAUAAGUGGACA [hsa-mir-4643] | 0.388 | 0.169 | 0.373 | 0.535 | -0.251
CAUUCUUUGCUA [hsa-mir-567] | 0.664 | -0.257 | -1.3 | 0.85 | -0.53
GCUUAUUGAUGUAGCCAACAAGC [hsa-mir-3148] | -0.643 | -0.225 | -0.529 | -0.527 | -0.384
UAGGAUUUGGGAGUUAUACUA [hsa-mir-5690] | -0.492 | -0.0337 | 0.541 | -0.528 | -0.349
GUGAUGUGAGGAGCAACAGGCACCCUCCU [hsa-mir-6792] | 0.246 | 0.254 | -0.596 | -0.0611 | 0.846
AAGCAGGGUCGGGCCUGGUU [hsa-mir-7641-2] | 0.442 | 0.0218 | 0.553 | 0.415 | 0.499
UGUACGCUUUAUUUGUGACGUAGG [hsa-mir-1197] | -0.195 | -0.0204 | -0.171 | -0.438 | 0.0488
UGAGCAUUCUAGCAGCAGUUUGAUGAUCA [hsa-mir-6516] | -0.394 | -0.419 | -0.0961 | -0.57 | -0.196
UAGGUUGUGUGCUGUCCAGCCUG [hsa-mir-26b] | -0.388 | -0.429 | -0.497 | -0.484 | 0.271
CCAUGUGAGUGAAGCCUGAUCAUCAUGUG [hsa-mir-8070] | -0.232 | -0.318 | -0.0843 | -0.67 | 0.588
CCUGAUGAAUCUGAGGCCAGG [hsa-mir-577] | -0.18 | 0.118 | 1.14 | -0.271 | 0.326
AGACCUUCCUUCCUUGUCU [hsa-mir-3163] | -0.558 | -0.206 | -1.91 | -0.452 | -0.35
CAACAGUUCUGUAGCGCAAUUGUG [hsa-mir-203a] | 0.622 | 0.0351 | 0.267 | 0.0356 | 1.07
AGUCACUUAGAUUACAUGUGACU [hsa-mir-888] | -0.368 | -0.513 | 0.394 | 0.0487 | -0.915

Sequence | pull-down binding Z-score (TO-N3 (biotin conjugate)) | pull-down binding Z-score [1] | pull-down binding Z-score [2] | pull-down binding Z-score [3] | pull-down binding Z-score [4]
CUUACUGCCCGGGCCGCCCUCAGUAA [hsa-mir-212] | 1.17 | 0.033 | -1.81 | 0.545 | 1.45
CCUUCGCUUUAUUUGUGACGAAUC [hsa-mir-154] | -0.676 | -0.374 | -0.922 | -0.799 | -0.185
CAGGCUGUGGCUCUCUGAAAGUC [hsa-mir-148b] | 1.09 | 0.496 | -1.29 | 0.761 | 1.18
GCUCUAAUAAUUUAUUCUAAUAAUAAUUUAGAUC [hsa-mir-7976] | -1.19 | -0.379 | -0.269 | -0.976 | -1.31
UUCUUCCUGGAGUCGGGGAAAAG [hsa-mir-320e] | 0.516 | -0.0301 | 1.31 | 0.308 | 0.278
UGCACCAGUUCUGGCCGCUGGUGGA [hsa-mir-4683] | 0.104 | -0.295 | -0.459 | -0.16 | 0.856
CAGCACUGAGCAGGCAGUGUUGU [hsa-mir-4288] | -0.149 | -0.325 | -0.48 | -0.241 | 0.42
AUGUCUCAGGUCCCCAGCUGAGUCAA [hsa-mir-6513] | 0.609 | 0.129 | -1.3 | 0.633 | 0.47
CUUUGCUACUGCUC [hsa-mir-6072] | -0.000442 | -0.0975 | -0.385 | -0.202 | 0.112
GAACUAACUAACCAGAACUAUUUUGUUC [hsa-mir-4652] | -0.0697 | 0.0681 | -1.48 | 0.249 | -0.742
AUAGUUUGGGGCUCUGCCCUGCUAUGGGAUAACUAU [hsa-let-7a-3] | -0.227 | -0.115 | 0.889 | -0.227 | 0.141
UUGAGCAUCUUCUGGGCAGCUGA [hsa-mir-7854] | 0.397 | 0.147 | -0.764 | -0.0613 | 0.833
AAAUAAGAGGCUAGGAUUGCCUCUUAUUU [hsa-mir-3201] | -1.18 | -0.362 | 0.838 | -0.688 | -1.57
GACAGGCUGGCCUCUGGAUGACCUGC [hsa-mir-5189] | 1.4 | -0.186 | 0.679 | 1.18 | 1.37
ACGCGCUGUGACACUUCAAACUCGU [hsa-mir-126] | 0.062 | -0.171 | -0.904 | -0.0932 | 0.424
CUCAUGAUAUGUUUGCCCCAUCAGCGUGUCACGAG [hsa-mir-3616] | -0.0894 | -0.139 | 0.251 | -0.104 | 0.199
CGGAGCCUCGCAGGGUCGGGCUCGGGCUCCCUAACCGUCUCCGCUUCUUC [hsa-mir-6084] | 1.36 | 0.558 | -0.288 | 0.896 | 1.77
GAGCUUCGUGUACAUUAUCUAUUAGAAAAUGAAGUAC [hsa-mir-4724] | 0.0579 | -0.033 | -0.219 | 0.0277 | 0.0115
GUGGUGGGCACUGCUGGGGUGGGCACAGCAGCCAUGCAGAGCGGGCAUUUGACCCCGUGCCACCCUUUUCCCCAG [hsa-mir-1227] | 3.14 | 1.89 | 0.221 | 2.64 | 2.64
